The assay deals with ubiquitin agarose (UniProt P0CG48 1-76, linked to agarose beads). The assay can be described thus: pull-down.

B1: GST-spartin 1-408 (domain or fragment)
chain: MEQEPQNGEPAEIKIIREAYKKAFLFVNKGLNTDELGQKEEAKNYYKQGIGHLLRGISISSKESEHTGPGWESARQMQQKMKETLQNVRTRLEILEKGLATSLQNDLQEVPKLYPEFPPKDMCEKLPEPQSFSSAPQHAEVNGNTSTPSAGAVAAPASLSLPSQSCPAEAPPAYTPQAAEGHYTVSYGTDSGEFSSVGEEFYRNHSQPPPLETLGLDADELILIPNGVQIFFVNPAGEVSAPSYPGYLRIVRFLDNSLDTVLNRPPGFLQVCDWLYPLVPDRSPVLKCTAGAYMFPDTMLQAAGCFVGVVLSSELPEDDRELFEDLLRQMSDLRLQANWNRAEEENEFQIPGRTRPSSDQLKEASGTDVKQLDQGNKDVRHKGKRGKRAKDTSSEEVNLSHIVPCEPV
B1: the binding result is recorded as “binds”.

(Values after paper PMC3982999 (Molecular Biology of the Cell, 2014).)
